Test results from paper PMC12915204, “A Cold Stress‐Activated Endocrine Sentinel Chemical Hormone Promotes Insect Survival via Mitochondrial Adaptations Through the Adipokinetic Hormone Receptor” (Advanced Science, 2025).

Tests used:
[1] = target: adipokinetic hormone receptor (AKHR) of Monochamus alternatus, overexpressed in Drosophila S2 cells (Monochamus alternatus)
[2] = tested on: T1, adipokinetic hormone receptor (AKHR); assay: Microscale thermophoresis with AKHR-GFP in S2 cell lysate; supported by calcium imaging in AKHR-expressing S2 cells ([…] asc-C9); assay type: binding, Monochamus alternatus
T1 construct: GFP-tagged AKHR in S2 cell lysate (AKHR-GFP fusion protein)

Substance	calcium mobilization (Fluo-4 imaging) in AKHR-expressing S2 cells, dose-response to AKH; no response with an empty vector [1] [nM]	Kd [2] [µM]
M. alternatus AKH peptide (adipokinetic hormone)	30	
asc-C9		272
